Source: patent US20080267950A1 (BOARD OF TRUSTEES OF THE UNIVERSITY OF ARKANSAS, published 2008)

Legend:
[1] = target: T1, LRP6 in C2C12 cell lysate (mouse, UniProt O88572 20-1613); experiment: co-immunoprecipitation: BMPR immunoprecipitated from C2C12 lysate, blotted with anti-LRP6
T1 construct: also called LDL receptor-related protein 6

[2] = target: T2, LRP5 in C2C12 cell lysate (mouse, UniProt Q91VN0 31-1614); experiment: co-immunoprecipitation: BMPR immunoprecipitated from C2C12 lysate, blotted with anti-LRP5
T2 construct: also called LDL receptor-related protein 5
T2 sequence (Q91VN0 31-1614 limits assumed): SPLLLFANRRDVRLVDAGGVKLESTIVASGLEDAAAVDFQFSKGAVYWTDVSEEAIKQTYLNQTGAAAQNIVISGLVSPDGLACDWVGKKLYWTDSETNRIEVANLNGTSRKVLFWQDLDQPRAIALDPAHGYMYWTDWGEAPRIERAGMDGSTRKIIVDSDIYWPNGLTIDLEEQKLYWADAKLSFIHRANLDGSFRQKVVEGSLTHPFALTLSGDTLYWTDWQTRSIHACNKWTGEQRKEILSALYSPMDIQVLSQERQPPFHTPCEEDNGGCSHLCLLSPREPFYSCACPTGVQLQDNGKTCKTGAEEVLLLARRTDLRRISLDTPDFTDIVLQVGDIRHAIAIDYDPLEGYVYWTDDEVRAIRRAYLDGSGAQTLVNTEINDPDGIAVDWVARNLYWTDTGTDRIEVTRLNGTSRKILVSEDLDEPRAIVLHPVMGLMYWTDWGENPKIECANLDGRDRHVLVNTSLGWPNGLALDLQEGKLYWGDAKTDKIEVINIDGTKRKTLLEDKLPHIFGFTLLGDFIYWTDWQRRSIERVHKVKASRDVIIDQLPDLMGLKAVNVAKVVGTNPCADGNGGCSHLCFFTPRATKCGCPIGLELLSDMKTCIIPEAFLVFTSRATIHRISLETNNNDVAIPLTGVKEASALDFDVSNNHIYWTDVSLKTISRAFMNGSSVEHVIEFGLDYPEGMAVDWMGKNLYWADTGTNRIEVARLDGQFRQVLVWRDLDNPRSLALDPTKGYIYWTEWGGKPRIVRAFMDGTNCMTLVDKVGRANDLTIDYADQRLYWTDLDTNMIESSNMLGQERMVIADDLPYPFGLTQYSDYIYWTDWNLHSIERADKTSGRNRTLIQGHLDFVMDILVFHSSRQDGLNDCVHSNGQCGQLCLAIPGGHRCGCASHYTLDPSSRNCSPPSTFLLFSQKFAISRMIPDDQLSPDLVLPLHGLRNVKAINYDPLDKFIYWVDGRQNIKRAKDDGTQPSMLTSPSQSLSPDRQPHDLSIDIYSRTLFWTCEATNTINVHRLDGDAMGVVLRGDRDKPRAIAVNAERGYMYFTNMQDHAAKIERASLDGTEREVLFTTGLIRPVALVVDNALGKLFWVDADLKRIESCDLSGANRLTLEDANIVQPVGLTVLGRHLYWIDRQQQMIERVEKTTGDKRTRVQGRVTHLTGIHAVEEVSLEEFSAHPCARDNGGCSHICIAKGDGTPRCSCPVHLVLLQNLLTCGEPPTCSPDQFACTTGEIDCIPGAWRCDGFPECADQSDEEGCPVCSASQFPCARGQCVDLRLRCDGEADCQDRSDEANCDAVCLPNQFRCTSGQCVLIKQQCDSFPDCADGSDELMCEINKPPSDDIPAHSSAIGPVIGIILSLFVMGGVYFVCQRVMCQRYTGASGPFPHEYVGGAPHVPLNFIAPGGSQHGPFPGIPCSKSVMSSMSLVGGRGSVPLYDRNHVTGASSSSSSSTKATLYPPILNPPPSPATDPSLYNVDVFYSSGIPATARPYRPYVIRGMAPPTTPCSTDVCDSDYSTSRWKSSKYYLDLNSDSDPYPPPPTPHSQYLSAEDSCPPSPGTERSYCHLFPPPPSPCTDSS

T1 sequence (O88572 20-1613 limits assumed): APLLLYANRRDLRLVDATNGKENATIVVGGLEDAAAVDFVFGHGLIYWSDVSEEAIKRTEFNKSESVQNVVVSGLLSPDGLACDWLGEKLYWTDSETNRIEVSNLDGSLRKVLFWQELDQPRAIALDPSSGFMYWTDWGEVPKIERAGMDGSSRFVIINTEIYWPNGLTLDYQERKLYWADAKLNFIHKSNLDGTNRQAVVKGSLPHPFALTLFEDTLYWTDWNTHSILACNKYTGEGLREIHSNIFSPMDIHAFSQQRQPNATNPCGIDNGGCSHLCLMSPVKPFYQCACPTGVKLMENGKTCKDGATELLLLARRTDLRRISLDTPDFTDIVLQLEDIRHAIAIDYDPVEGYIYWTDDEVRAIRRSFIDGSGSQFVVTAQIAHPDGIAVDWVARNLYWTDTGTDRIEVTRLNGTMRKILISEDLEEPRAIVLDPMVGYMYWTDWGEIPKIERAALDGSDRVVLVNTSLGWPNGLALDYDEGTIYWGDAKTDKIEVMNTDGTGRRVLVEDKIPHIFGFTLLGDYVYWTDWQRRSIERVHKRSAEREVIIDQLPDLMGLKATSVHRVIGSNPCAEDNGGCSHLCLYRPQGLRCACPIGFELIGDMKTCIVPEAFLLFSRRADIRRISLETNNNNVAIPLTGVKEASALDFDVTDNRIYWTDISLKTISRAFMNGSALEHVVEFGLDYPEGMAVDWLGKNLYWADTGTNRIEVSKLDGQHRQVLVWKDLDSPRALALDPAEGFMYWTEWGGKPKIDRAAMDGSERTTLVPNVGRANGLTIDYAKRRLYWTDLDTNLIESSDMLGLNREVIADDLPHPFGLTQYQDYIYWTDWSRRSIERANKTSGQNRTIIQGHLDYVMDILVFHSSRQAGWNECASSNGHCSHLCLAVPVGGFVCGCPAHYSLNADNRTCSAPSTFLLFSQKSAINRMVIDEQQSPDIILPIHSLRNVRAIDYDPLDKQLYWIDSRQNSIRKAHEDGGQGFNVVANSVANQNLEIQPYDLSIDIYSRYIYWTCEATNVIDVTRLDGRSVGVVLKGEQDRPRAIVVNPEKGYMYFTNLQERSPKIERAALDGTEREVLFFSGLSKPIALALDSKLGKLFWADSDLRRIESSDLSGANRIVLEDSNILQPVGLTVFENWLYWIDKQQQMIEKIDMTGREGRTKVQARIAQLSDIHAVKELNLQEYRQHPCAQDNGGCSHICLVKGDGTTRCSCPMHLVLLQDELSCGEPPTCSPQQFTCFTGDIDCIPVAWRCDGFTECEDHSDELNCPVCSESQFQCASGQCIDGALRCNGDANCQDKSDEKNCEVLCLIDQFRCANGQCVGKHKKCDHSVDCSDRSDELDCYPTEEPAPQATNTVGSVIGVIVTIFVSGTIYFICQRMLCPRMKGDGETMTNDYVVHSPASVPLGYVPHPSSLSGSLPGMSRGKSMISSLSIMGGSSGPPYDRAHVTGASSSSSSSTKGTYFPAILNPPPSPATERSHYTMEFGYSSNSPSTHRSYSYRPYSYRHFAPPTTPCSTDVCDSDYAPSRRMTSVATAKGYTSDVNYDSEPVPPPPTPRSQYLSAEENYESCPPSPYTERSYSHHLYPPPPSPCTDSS

B1: BMPR-II in C2C12 cell lysate (receptor, mouse, UniProt O35607 27-1038, looked up)
chain: SQNQERLCAFKDPYQQDLGIGESRISHENGTILCSKGSTCYGLWEKSKGDINLVKQGCWSHIGDPQECHYEECVVTTTPPSIQNGTYRFCCCSTDLCNVNFTENFPPPDTTPLSPPHSFNRDETIIIALASVSVLAVLIVALCFGYRMLTGDRKQGLHSMNMMEAAAAEPSLDLDNLKLLELIGRGRYGAVYKGSLDERPVAVKVFSFANRQNFINEKNIYRVPLMEHDNIARFIVGDERLTADGRMEYLLVMEYYPNGSLCKYLSLHTSDWVSSCRLAHSVTRGLAYLHTELPRGDHYKPAISHRDLNSRNVLVKNDGACVISDFGLSMRLTGNRLVRPGEEDNAAISEVGTIRYMAPEVLEGAVNLRDCESALKQVDMYALGLIYWEVFMRCTDLFPGESVPDYQMAFQTEVGNHPTFEDMQVLVSREKQRPKFPEAWKENSLAVRSLKETIEDCWDQDAEARLTAQCAEERMAELMMIWERNKSVSPTVNPMSTAMQNERNLSHNRRVPKIGPYPDYSSSSYIEDSIHHTDSIVKNISSEHSMSSTPLTIGEKNRNSINYERQQAQARIPSPETSVTSLSTNTTTTNTTGLTPSTGMTTISEMPYPDETHLHATNVAQSIGPTPVCLQLTEEDLETNKLDPKEVDKNLKESSDENLMEHSLKQFSGPDPLSSTSSSLLYPLIKLAVEVTGQQDFTQAANGQACLIPDVPPAQIYPLPKQQNLPKRPTSLPLNTKNSTKEPRLKFGNKHKSNLKQVETGVAKMNTINAAEPHVVTVTMNGVAGRSHNVNSHAATTQYANGAVPAGQAANIVAHRSQEMLQNQFIGEDTRLNINSSPDEHEPLLRREQQAGHDEGVLDRLVDRRERPLEGGRTNSNNNNSNPCSEQDILTQGVTSTAADPGPSKPRRAQRPNSLDLSATNILDGSSIQIGESTQDGKSGSGEKIKRRVKTPYSLKRWRPSTWVISTEPLDCEVNNNGSDRAVHSKSSTAVYLAEGGTATTTVSKDIGMNCL
notes: also called BMP-2 receptor
[1]
  binding result: no binding
[2]
  binding result: no binding
